Laboratory results as given in patent publication US20260256941A1.

Biological target: PD-1 receptor on the surface of T cells (human) (UniProt Q15116)
Experiment: cell-based or functional assay

Chain of UniProt Q15116 (Q15116 25-288): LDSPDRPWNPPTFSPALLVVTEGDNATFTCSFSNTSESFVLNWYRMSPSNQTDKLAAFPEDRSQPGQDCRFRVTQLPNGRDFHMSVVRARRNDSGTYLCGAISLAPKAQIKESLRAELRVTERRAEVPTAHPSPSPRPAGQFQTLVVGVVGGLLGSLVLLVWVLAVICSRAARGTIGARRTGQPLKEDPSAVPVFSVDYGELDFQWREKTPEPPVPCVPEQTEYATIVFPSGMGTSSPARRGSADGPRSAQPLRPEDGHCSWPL

Substance: PD-L1 traditional exosome (PD-L1 displayed by traditional engineering methods) (ligand)
- percentage of activated (CD8+CD25+) T cells, flow cytometry; PD-L1 traditional exosome; unmodified exosome 34.1%: 22.5%
